Experimental data published in the nanobody polyreactivity screen of Harvey et al. (2022).

Assay: yeast display, Sf9 membrane polyspecificity reagent, FACS + sequencing; frameworks hold sequencing errors
Summary of the method: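 Galactose induction of a Saccharomyces cerevisiae BJ5465 synthetic nanobody display library ran 36–48 hours. The cells were then stained for 1 hour at 4 °C with 10% biotinylated, detergent-solubilized Sf9 membrane reagent, pulled down on streptavidin microbeads and FACS-sorted into low and high (top ~1%) gates on expression and reagent-binding fluorescence. Labels for polyreactivity follow the gate of origin.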

| Sequence | polyreactivity (PSR sort gate) |
| --- | --- |
| QVQLVESGGGLVQAGGRHRLSCAASGYIFKYYAMGWYRQAPGKERELVAAISRSGDSTYYADSVKGRFTISRDHAKNTVYLQMNSLKPEDTAVYYCNARYWHGPTGSDYWGQGTQVTVSS | high polyreactivity |
| QVQLVESGGGLVQAGGRLLLSCAASGRTFYRNAMGWYRQAPGKEREFVPSIRTSGGSTYYADSVKGRFTISRDNAKNTVYLQMNSLKPEDTAVYYCKKYRQQGWEFDYWGQGTQVTVSS | high polyreactivity |
| QVQLVESGGGLVQAGGRLLLSSAASGSTFIWNGMGWYRQAPGKERELVAAITSSSTYYADSVKGRFTISRDNAKNTVYLQMNSLKPEDTAVYYCAATFIQVVVNVQLYDYDYWGQGTQVTVSS | low polyreactivity |
| QVQLVESGGGLVQAGGRLRFSCAASGSNFPVYAMGWYRHAPGKERELVADITYTTGSTYYADSVKGRFTISRDNAKNTVYLQMHSLKPEDTGVYYCNARDYTWYLHLGYSTLYWGQGTQVTVSS | low polyreactivity |
| QVQLVESGGGLVQAGGRLRISCAASGFSFFSNAMGWYRQAPGKERELVAVIDRATSTYYADSVKGRFTISRDNAKNTVYLQMNSLKPEDTAVYYCNADGEEVYDFNYFLSFKGDYWGQGTQVTVSS | low polyreactivity |
| QVQLVESGGGLVQAGGRLRISCAASGRIFPYNAMGWYRQAPGKERELVAAISFGGGRTYYADSVKGRFTISRDNAKNTVYLQMNSMKPEDTAVYYCNTASPQDIVFRVFYGGDYWGQGTQVTVSS | low polyreactivity |
| QVQLVESGGGLVQAGGRLRLICAASGFNFKFYALGWYRQAPGKERELVAAITASSGRTYYADSVKGRFTISRDNAKNTVFLQMNSLKPEDTAVYYCAALGITYGRYDYWGQGTQVTVSS | high polyreactivity |
| QVQLVESGGGLVQAGGRLRLSCAASASTFSDYAMGWYRQAPGKERELVATITSTGDTNYADSVKGRFTISRDNAKNTVYFQMYSLKPVDTAVYYCAAQHKKYGKRGLWNNFGYWGQGTQVTVSS | low polyreactivity |
| QVQLVESGGGLVQAGGRLRLSCAASGFIFDTKAMGWYRKAPGKERELGARISSSAGSTYYADSVKGLFTISRDNAKNTVYLQMNSLKPEDTAVYYCNRTYRLPVYKVDYWGQGTQVTVSS | low polyreactivity |
| QVQLVESGGGLVQAGGRLRLSCAASGFIFGAYAMGWYRQAPGKERELVAAINWSGGSTYYADSVKGRFTISRDNAKNTVYLQMNSLKPEDTAVYYCNARYNGFYAYPRHDYWGQGTQVTVSS | low polyreactivity |
| QVQLVESGGGLVQAGGRLRLSCAASGFIFGTYTMGWYRQAPGKERELVAAITNGGSTYADSVKGRFTISRDNAKNTVYLQMISLKPEDTAVYYCAADYRGHSGAWYDYWGLGTQVTVSS | low polyreactivity |
| QVQLVESGGGLVQAGGRLRLSCAASGFIFTPYTMGWYRQSPGTERELVAAITDGSSTYYADSVNGRFTISRDNAKNTVNLQMNSLKPEDTAVYYCNADGKQPYISWLYDYWGQGTQVTVSS | low polyreactivity |
| QVQLVESGGGLVQAGGRLRLSCAASGFIYENAMGWYRQAPGKERELVAAISYSGGCTYYADSVKGRFTISRDNAKNTVYLQMNSLKPEDTAVYVCAADTQGYDYDYWGQGTQVTVSS | low polyreactivity |
| QVQLVESGGGLVQAGGRLRLSCAASGFNFRYYAMGWYRQAPGKERELVAASSRSGGGTYYADSVKGRFTISRDTAQNTVYLQMNSLTPEDTAVYYCAADPSLGRGYDYWGQGTQVTVSS | high polyreactivity |
| QVQLVESGGGLVQAGGRLRLSCAASGFTFGYYTMGWYRQAPGKESELVASISRTGGRTYADSVKGRFTISRDNAKNTVFLQMNSLKPEDTAVYYCNRKKYFSYPSDYGYGYWGQGTQVTVSS | high polyreactivity |
| QVQLVESGGGLVQAGGRLRLSCAASGFTFRYYALGWYRQAPGKERELVAAISAGGGSTYYADSVKGRFTISRDNAKNNVYLQMHSQKPDDTAVYYCASAGARPGYDYWGQCTQVTVSS | high polyreactivity |
| QVQLVESGGGLVQAGGRLRLSCAASGFTFSGYGMGWSRQAPGKERELVAAISNSGGRTYADSVKGRFTISRDTAQKTVYLQMNSLKPEDTAVYSCAKKPGGFSQASRVDYDYWGQGTQVTVSS | low polyreactivity |
| QVQLVESGGGLVQAGGRLRLSCAASGFTFYRYPMGWYRQAPGTERELVAAITWSGGSTYYADSVKGRFTISRDTAMNTVYLQMNSLKPEDTAVYYCAADIYDGGFDYWGQGTQVTVSS | low polyreactivity |
| QVQLVESGGGLVQAGGRLRLSCAASGFTFYVNAMGWYRQAPGKERELVAAIRGSGGSTYYADSVKGRFTISRVNAKITVYLQMNSLKPEDTAVYYCAKGKARSAQGSSRAYNYWGQGTQVTVSS | high polyreactivity |
| QVQLVESGGGLVQAGGRLRLSCAASGFTLDRYAMGWYRQAPGKERELVAAITQSGVSTYYADSVKGLFTISRDNAKNTVYLQKNSLKPEETAVYYCNALLRRTYYRYTWGYGYWGQGTQVTVSS | high polyreactivity |
| QVQLVESGGGLVQAGGRLRLSCAASGIIFSFYTMGWYIQAPGKERELVAAITWSGGSTYYADSVKGRFTISRDNAKNTVYFQMNSLKPEDTSVYYCNARNPWSKRSQGYSWGQGTQVTVSS | low polyreactivity |
| QVQLVESGGGLVQAGGRLRLSCAASGIIRGSYAMGWYRQAPGKERELVAGINSGGGTYYADSVKGRFTISRDNAKNTVYLQMNSLKPEDTAVYYCNARKSSGLSSYDWYSWEYGYWGQGTQVTVSS | low polyreactivity |

| Sequence | polyreactivity (PSR sort gate) |
| --- | --- |
| QVQLVESGGGLVQAGGRLRLSCAASGIISRFYAMGWYRQAPGKERELVARISGSGGSTYYADSVKGRFTISRDNAKTTVYLQMNSLKPEDTAVYYFNAKSYRYFGVRRFNYWGQGTQVTVSS | high polyreactivity |
| QVQLVESGGGLVQAGGRLRLSCAASGIRSYRNGMGWYRQAPGKERELVASISKRADSTYYADSVKGRFTISRDNAKITVYLQMNSLKPEETAVYYCYVVSKVIRGLSGDGYWGQGTQGTVSS | high polyreactivity |
| QVQLVESGGGLVQAGGRLRLSCAASGITCYRYVMGWYRQAPGKERELVAAITSRGGSTSYADSVKGRFTISRDNAQNTVYLQMNSLKPEDTAVYYCAAVYRRDYDYWGQGTQVTVSS | high polyreactivity |
| QVQLVESGGGLVQAGGRLRLSCAASGITFNSYAMGWYRQAPGKERELVAAITLTGGTTYYADSVKGRFTISRDNAKNTVYLQKNSLKPEDTAVYYCAAQYWWWSRFEYDSWGQGTQVTVSS | low polyreactivity |
| QVQLVESGGGLVQAGGRLRLSCAASGITLRRNALVWYRQAPGKERELVARITWRGSTYYAESVKGRFTISRDNAKNTVYLQMNSLKPADTAVYYCAADYRSWQPPTKLPPGASDYWGQGTQVTVSS | low polyreactivity |
| QVQLVESGGGLVQAGGRLRLSCAASGLIFDSYAMGWYRQAPGKERELVAAITYTGGSTYYADSVKGRFTISRDNAKNTVYLQMNSLKPEDTAVYYCAARSQSDRYGYWGQGTQVTVSS | high polyreactivity |
| QVQLVESGGGLVQAGGRLRLSCAASGLTFDGYAMGWYRQAPGKERELVAAISWSGNTYYADSVKGRFKISRDNAKNTVYLQMNSLKPEDTAVYYCAVKYYHYGSWGQGTQVTVSS | high polyreactivity |
| QVQLVESGGGLVQAGGRLRLSCAASGLTLQRYTKGWYRQAPGTERELVAAISRSGGGTYYADSVKGRFTISRDNAKNTVYLEMNSLKPEDTAVYYCAAGWYVYRPSRGYGYWGQGTQVTVSS | high polyreactivity |
| QVQLVESGGGLVQAGGRLRLSCAASGNIFLDYTLGWYRQAPGKERELVAAISRGGSTYYADSVKGRFTISRDNAKNTVYLQMNSLKPEDTAVYYCNARCWEYFAHNYWGQGTQVTVSS | low polyreactivity |
| QVQLVESGGGLVQAGGRLRLSCAASGNIFYYYAMGWYRQAPGKERELVADIRSSGRTNYADSVKGRFTISRDNATNTVYLQMNSLKPADTAVYYCATDKWYSYADKYDYWGQGTQVTVSS | low polyreactivity |
| QVQLVESGGGLVQAGGRLRLSCAASGRIFAEYAMGWYRQAPGKVRELVAAISRRGGRPYYADSVKGRFTISRDNAKKPVYLQMNSLTPDDTAVYYCAADHGDPGGYDYWGQGTQVTVSS | high polyreactivity |
| QVQLVESGGGLVQAGGRLRLSCAASGRIFDLNAMGWYRQAPGKERELVADINSGGSTYYADSVKGRFTISRDNAKNTVYLQMNSLKPEDTAVYYCDVRRNQHVVQMYYWGQGTQVTVSS | low polyreactivity |
| QVQLVESGGGLVQAGGRLRLSCAASGRIFGKNVMGWYRQAPGKERELVAAISSGGSTYADSVKGRFTISRDNAKNTFYLQMNSLKPEDTAVYYCNTRPRLYGYRPSQYTYDYWGQGTQVTVSS | high polyreactivity |
| QVQLVESGGGLVQAGGRLRLSCAASGRIFGRYAMGWYRQAPGKERELVAAITWTGGTTYYADSVKGRFTISRDNAKNTVYLQMNSLKPEDTAVYYCAARQGYGIYGDYYYWGQGTQVTVSS | high polyreactivity |
| QVQLVESGGGLVQAGGRLRLSCAASGRIFTPNPMGWYRQAPGKERELVAAITTSAGRTYYADSVKGRFSISRDNAKNTVYLQMNSLKPEDTAVYYCAARYFPIRGYSWGQGSQVTVSS | high polyreactivity |
| QVQLVESGGGLVQAGGRLRLSCAASGRIFYTNYMGWYRHAPGKERELVAAIRSVSTYYADSVKGRFTISRDNAKNTVYLHMNSLNPEDTAVYYCNALRTNRYDYWGQGTQVTVSS | high polyreactivity |
| QVQLVESGGGLVQAGGRLRLSCAASGRIFYTYTMGWYRQAPGKERELVATITDGTRTNYADSVKVRFTISRDNAKITVYLQMNSLKHEDTAVYYCNAAGRWHDLYRINYDYWGQGTQVTVSS | low polyreactivity |
| QVQLVESGGGLVQAGGRLRLSCAASGRIISHYAMGWYRQAPGKEWELVAAISRSGGSTYYADSVKGRFTLSRDNAKNTVYLQMNSLKPEDTAVYYCAARSWPNIRCHDYWGQGTQVTVSS | high polyreactivity |
| QVQLVESGGGLVQAGGRLRLSCAASGRIYGLYAMGWYRQAPGKERELVAAITLSGDGTDYADSVKGRFTISRDNAKNTVYLQMTSLKPDDTAVYYCAKVGQYWWNMDYWGQGTQVTVSS | low polyreactivity |
| QVQLVESGGGLVQAGGRLRLSCAASGRTFIANVMGWYIQAPGKERELVAAITSGGGTSYADSVKGRFTISRDNAKNTVYLQMNSLKPEDTAVYYCNADGYLAERFVIRLDEYRDYDYWGQGTQVTVSS | low polyreactivity |
| QVQLVESGGGLVQAGGRLRLSCAASGRTFIGYAMGWSRQAPGKERELVAAISSTGGSTYYADSVKGRFTISRDNAKNTVYLQMNSLKPEDTAVYYCATDADRPPRTPDISYVSNFDYWGQGTQVTVSS | low polyreactivity |
